Here are results for 3 compounds from US5447852A, “DNA encoding cyclophilin C, and recombinant methods employing it” (The Board of Trustees of the Leland Stanford Junior …, priority 1993, dated 1995).

Series [1] concerns the target T1, cyp C:CsA:p55 complex (cyp C-GST fusion protein and 55Kd protein) (Mus musculus, UniProt P30412).
T1 construct: A portion of the cyp C cDNA encoding aa 16-212 was cloned into the bacterial expression vector pGEX 2T; made in house; host or cells: E. coli MC1061 (cyp C-GST); 55Kd protein from labelled AC 6 cell lysate
The series is described as follows: Cyp C affinity reactions with 35S labeled cell lysate: 55Kd protein. Format: binding, murine. As to conditions: AC 6 cells, 77Kd and 55Kd proteins (FIG. 5). On the procedure:
(§1) FIG. 6. […] Control samples were incubated with 10 μg of GST. Experimental samples were incubated with 10 μg of cyp C-GST fusion protein plus the indicated drug concentration.
(§2) 10^7 TCA precipitable counts of labeled lysate were used per reaction. Reaction volumes were brought up to 1 ml in lysis buffer. Each reaction was precleared by incubation with 10 μg of glutathione-s-transferase (GST) and 100 μl of 50% glu-ag solution for 2 hours at 4° C. with gentle agitation. Reactions were spun 5 minutes in a microfuge at 4° C., and the pellets were discarded. To the precleared lysates, 10 μg of cyp C fusion protein was added, along with 30 μl of a 50% solution of glu-ag. Reactions were incubated at 4° with gentle agitation for 3-4 hours, at which time tubes were spun 5 minutes in a microfuge at 4° C., and the supernatants were removed. Glu-ag pellets were washed 4× with 1 ml of cold lysis buffer, being transferred to a fresh tube for the final wash. […], and the pellet was resuspended in 50- 100 μl of SDS-PAGE sample buffer containing β-mercaptoethanol. Samples were boiled 5 minutes and loaded onto 9.5% SDS-PAGE gels. Gels were stained/fixed in methanol: acetic acid: coomassie blue, and destained in methanol: acetic acid.

In the next series the test system is cyp A mRNA in AC 6 cells. Kind of series: Northern analysis of cyp A mRNA in AC 6 cells. Format: cell-based, murine. As to conditions: AC 6 cells (FIG. 3). On the procedure:
Individual bacterial colonies containing phagemid vectors which had undergone two rounds of subtraction were cultured, and plasmid miniprep DNA was prepared from them by the NaOH/SDS, NaAcetate method. cDNA inserts were isolated by digestion of the plasmid DNA with Stu 1 and Hd III followed by low-melt agarose gel electrophoresis. Inserts were visualized by UV light and excised and purified by organic extraction and precipitation for use as templates for ^32 p probe synthesis. Purified inserts were labeled by random priming in the presence of 50 μCi [alpha-32P] dCTP (Amersham) and were purified by chromatography over a Sephadex G-50 column. AC 6MRNA prepared from IL-1 induced and uninduced cultures was electrophoresed on 1.0% formaldehyde-agarose gels using 0.5 μg RNA/lane as described (Sambrook, 1989). RNA was blotted onto nitrocellulose filters and prehybridized and hybridized in a solution containing 50% formamide, 6×SSC, 5×Denhardt's solution, 5 mM NaPO4, 100 ug/ml sheared, denatured salmon sperm DNA, and 50 ug/ml yeast tRNA. Labeled cDNA probe, prepared as described above, was hybridized for 16 hours at 45° C. […], followed by washing in 0.2×SSC plus 0.1% SDS at 65° C. for 30 minutes. Filters were then placed on film for autoradiographic visualization. […]

In the next series the test system is cyp C mRNA in AC 6 cells. The series is described as follows: Northern analysis of cyp C mRNA in AC 6 cells. Format: cell-based, murine.
Series [2] addresses cyp C:p77 complex (cyp C-GST fusion protein and 77Kd protein) (Mus musculus, UniProt P30412). As to the method:
as §1, §2

Series [3] deals with cyp C-GST fusion protein (glutathione-s-transferase fused to aa 16-212 of murine cyclophilin C), without CsA (murine).

Chain of cyp C:p77 complex (cyp C-GST fusion protein and 77Kd protein) (P30412 with tags, fused parts or gaps limits assumed): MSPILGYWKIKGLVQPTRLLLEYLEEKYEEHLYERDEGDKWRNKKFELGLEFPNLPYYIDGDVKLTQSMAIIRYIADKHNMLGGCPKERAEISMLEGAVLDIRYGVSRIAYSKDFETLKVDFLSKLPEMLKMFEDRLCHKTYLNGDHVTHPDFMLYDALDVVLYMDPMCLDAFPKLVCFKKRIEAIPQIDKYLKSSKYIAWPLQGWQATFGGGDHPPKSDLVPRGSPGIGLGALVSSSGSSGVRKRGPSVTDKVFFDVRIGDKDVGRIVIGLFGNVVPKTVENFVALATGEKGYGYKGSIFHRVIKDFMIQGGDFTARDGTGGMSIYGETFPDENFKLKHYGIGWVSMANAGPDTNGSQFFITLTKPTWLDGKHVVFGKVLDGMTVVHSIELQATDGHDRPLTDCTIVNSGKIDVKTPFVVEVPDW
T1 sequence (P30412 with tags, fused parts or gaps limits assumed): as above
Procedure for cyp C mRNA in AC 6 cells: Purified inserts were labeled by random priming in the presence of 50 μCi [alpha-32P] dCTP (Amersham) and were purified by chromatography over a Sephadex G-50 column. […] RNA was blotted onto nitrocellulose filters and prehybridized and hybridized in a solution containing 50% formamide, 6×SSC, 5×Denhardt's solution, 5 mM NaPO4, 100 ug/ml sheared, denatured salmon sperm DNA, and 50 ug/ml yeast tRNA. Labeled cDNA probe, prepared as described above, was hybridized for 16 hours at 45° C. for 30 minutes, followed by washing in 0.2×SSC plus 0.1% SDS at 65° C. for 30 minutes. Filters were then placed on film for autoradiographic visualization.
Twenty μg of total RNA from each source was run on a 1.2% agarose formaldehyde gel and blotted onto Genescreen (DuPont) membrane. Filters were hybridized as described above for 18 hours. The final wash conditions were 0.2×SSC, 0.1% SDS at 65° C. […] The autoradiograms presented in the Figure represent exposures of 3 days at -70° C. with an intensifying screen for both the cyp A and the cyp C probes.

As to “IL-1: hematopoietic and inflammatory cytokine; unpurified recombinant human IL-1 alpha used for induction of AC 6 cells”, the “effect of IL-1 in the culture media during metabolic labeling on the associating proteins” value in series [1] was “no obvious effect”. In the series on cyp A mRNA in AC 6 cells, the “elevation of cyp A mRNA in response to IL-1” value is “elevated approximately three-fold”. For the same compound, the “elevation of cyp C mRNA in response to IL-1” value in the series on cyp C mRNA in AC 6 cells (AC 6 cells (FIG. 3)) is recorded as “elevated approximately three-fold”. Also, the “induction of cyp C message levels” value with cyp C mRNA in AC 6 cells (AC 6 stromal cell line treated with IL-1) is on record as 2-3 fold.

Turning to `C=CC[C@@H]1/C=C(\C)C[C@H](C)C[C@H](OC)[C@H]2O[C@@](O)(C(=O)C(=O)N3CCCC[C@H]3C(=O)O[C@H](/C(C)=C/[C@@H]3CC[C@@H](O)[C@H](OC)C3)[C@H](C)[C@@H](O)CC1=O)[C@H](C)C[C@@H]2OC` [FK506], the “effect on the binding of cyp C to the 77Kd protein” value in series [2] is on record as “no effect”.

In series [3], cyclosporin A (peptide) came in with a CsA concentration that completely inhibits the isomerase activity of cyp C of 2 µg/mL.
